Broadly, the stoichiometry N is a count of units in the complex or per binding partner.

The values that follow come from publication PMC5524322, “Species A rotavirus NSP3 acquires its translation inhibitory function prior to stable dimer formation” (PLoS ONE, 2017).

This data set deals with the molecule itself. Nature of the data set: non-dissociating Western blot (WB-ND); lysates of vaccinia-infected BSC-1 cells (18 hpi) mixed with 2x non-dissociating sample buffer (62.5 mM Tris-HCl pH 6.8, 0.8% SDS, 20% glycerol), 30 min on ice, not boiled; 12% SDS-PAGE in a cold room; blot with anti-NSP3 rat serum; stable dimer band (68 kDa) told apart from monomer/dimerization intermediate band (34 kDa); cells with MG132 or DMSO, in one experiment with ….

B1: wild type NSP3 (non-structural protein 3) of simian species A rotavirus strain RRV (natural protein)
chain: MESTQQMASSIINSSFEAAVVAATSTLELMGIQYDYNEVYTRVKSKFDLVMDDSGVKNNLIGKAITIDQALNGKFSSAIRNRNWMTDSRTVAKLDEDVNKLRIMLSSKGIDQKMRVLNACFSVKRIPGKSSSIVKCTRLMKDKLERGEVEVDDSFVEEKMEVDTIDWKSRYEQLEKRFESLKHRVNEKYNHWVLKARKVNENMNSLQNVISQQQAHINELQMYNNKLERDLQSKIGSVVSSIEWYLRSMELSDDVKSDIEQQLNSIDQLNPVNAIDDFESILRNLISDYDRLFIMFKGLLQQCNYTYTYE
notes: also called wtNSP3; RRV NSP3
Turning to B1, the “stoichiometry N” value was 2.

B2: NSP3 W170A of rotavirus strain RRV (natural protein)
chain: MESTQQMASSIINSSFEAAVVAATSTLELMGIQYDYNEVYTRVKSKFDLVMDDSGVKNNLIGKAITIDQALNGKFSSAIRNRNWMTDSRTVAKLDEDVNKLRIMLSSKGIDQKMRVLNACFSVKRIPGKSSSIVKCTRLMKDKLERGEVEVDDSFVEEKMEVDTIDAKSRYEQLEKRFESLKHRVNEKYNHWVLKARKVNENMNSLQNVISQQQAHINELQMYNNKLERDLQSKIGSVVSSIEWYLRSMELSDDVKSDIEQQLNSIDQLNPVNAIDDFESILRNLISDYDRLFIMFKGLLQQCNYTYTYE
notes: also called vNSP3_(W170A)
With B2, the “fold lower accumulation of stable dimers than NSP3_(Y192A)” value came out at 16 fold and the “fold lower accumulation of stable dimers than wtNSP3” value came out at 9 fold.
